Experimental data published in publication PMC3182529 (Cell cycle (Georgetown, Tex.), 2008).

How the values were obtained:
[1] = target: H3S10phG12P (1–20) (UniProt P68431 2-21, G12P, phosphoserine at 10); assay: fluorescence polarisation
[2] = target: H3S10phK14acG12P (1–20) (UniProt P68431 2-21, G12P, phosphoserine at 10; acetyl-lysine at 14); assay: fluorescence polarisation

B1: 14-3-3ζ (natural protein)
chain: MDKNELVQKAKLAEQAERYDDMAACMKSVTEQGAELSNEERNLLSVAYKNVVGARRSSWRVVSSIEQKTEGAEKKQQMAREYREKIETELRDICNDVLSLLEKFLIPNASQAESKVFYLKMKGDYYRYLAEVAAGDDKKGIVDQSQQAYQEAFEISKKEMQPTHPIRLGLALNFSVFYYEILNSPEKACSLAKTAFDEAIAELDTLSEESYKDSTLIMQLLRDNLTLWTSDTQGDEAEAGEGGEN
Kd [1]: 19.9 µM | Kd [2]: 40 µM
